The target in the assay is VPS35 D620N (VPS35 D620N knock-in mouse, VKI) (mouse (endogenous in brain)), Q9EQH3. Nature of the assay: co-IP. Conditions: remark: other sources report otherwise.

B1: WASH complex member FAM21, Q6PGL7 1-1334 (natural protein)
chain: MNRTSPDSERPPASEPVWERPWSVEEIRRSSQNWSLAADAGLLQFLQEFSQQTISRTHEIKKQVDGLIQETKATHCRLHNVFNDFLMLSNTQFIENRVYDEEVEEQVLKAEAEKAEQEKTREQKEIDLIPKVQEAVNYGLQVLDSAFEQLDIKAGNSDSEEDDANERVDLILEPKDLYIDRPLPYLIGSKLFMEQEDVGLGELSSEEGSVGSDRGSIVDSEDEKEEEESDEDFASHSDNDQNQHTTQISDEEEDDDGDLFADSEKEGDDIEDIEESAKSKRPTSFADELAARIKGDISNQRKEGQTDGKPQKTVKEKKERRTPADDEEDILFPPPTLTDEDFSPFGSRGGLFSNGQGLFDDEDESDLFKEAPRARPAQAPVSEELPPSPKPGKKIPAGAVSVLLGHPDVSGSTSAPSLKELQKHGQPTPGKSSHLPTPAGLFDDDDNDNDEDDNNFFMPSSSKPSKTDKVKSTAIIFDDDEGDLFKEKAEALPAASVSQTHESKTRADKTIALPSSKNLKLVSETKTQKGLFSDEEDSEDLFSSQSSSKPKSASLPSSQPPTSVSLFGDEDEEDSLFGSAAAKKQTSSLQPQSQEKAKPSEQPSKKTSALLFSSDEEDQWNIADSHTKLASDNKSKGELWDSGATQGQEAKAVKKTNLFEDDDDDEVDLFAIAKDSQKKTQRTSLLFEDDAESGSSLFGLPPTSVPSATTKKESVPKVPLLFSDEEDSEVPSGVKPEDLKVDNARVSPEVGSADVASIAQKEGLLPASDQEAGGPSDIFSSSSPLDKGAKGRTRTVLSLFDEDEDKVEDESSTCAPQDGREKGLKTDSRPKSTGVFQDEELLFSHKLQKDNDPDVDLFAGTKKIRSSVPSGGSLFGDDEDDDLFSSAKTQPVVPEKKGTLKKDHPVSLKNQDPLDSTQGSKEKSTWKTEPAQDSSGLTPFKSREPSSRIGKIQANLAINPAALLPTVALQIPGTKPVSSELAFPSSEPGRSHILESVPTLPGSVEAGVSFDLPAQADTLHSANKSRVKVRGKRRPQTRAARRLAAQESSEAEDVTVDRGPVAQLSSSPVLPNGHQPLLQPRMASGQTSSETATAPPWEGGPVLSAADRSFFVKSRPQTGNEADLFDSGDIFPKSRGSQSVEGAGVMAGEPPSHSSGGRKEKSLAFPDLSEGSSTEDLFQSVKPRAAKNRNPFPLLEDEEDLFADPRGKKNERKPDSHQDSVSKTHDIFEDDIFATEAIKPFPKKREKGRTLEPNLFDDNIDIFADLTVKPKEKSKKKVAAKSMFDDDTDDIFSSGLQAKASKPKSQSAEAASEQRSEHKVASIFDDPLNAFGSQ
The molecule B1 registered a percent reduction of co-IP against wild type of 25 to 30%.

Source of the values: article doi:10.1101/2021.01.18.427223.
